Test results from patent publication US20220406376A1 (MacroGenics, published 2022).

Tests used:
[1] = target: T1, HER2/neu on the surface of target cells (N87, JIMT-1, MCF-7, MDA-MB231) (UniProt P04626 23-1255, limits assumed); experiment: flow cytometry on N87 gastric cancer cells, anti-hFc APC MFI
T1 construct: whole, on cells

[2] = target: T2, CD137 on the surface of cells (activated human T cells; engineered CHO cells) (human, UniProt Q07011 24-255); experiment: flow cytometry on activated pan T cells gated CD8, anti-hFc APC MFI
T2 construct: whole, on cells; also called human CD137; cell surface expressed CD137

[3] = target: T2, CD137 on the surface of cells …; experiment: flow cytometry on activated CD8+ T cells (CD8 FITC), anti-hFc APC MFI
[4] = target: T1, HER2/neu on the surface of target cells …; experiment: flow cytometry on JIMT-1 cells, anti-hFc APC MFI
Description: (§1) CD137×TA Binding Molecules, DART-B, DART-D, DART-G and the control molecules DART-3 and DART-6 were additionally evaluated for their ability to bind to HER2/neu expressed on N87 cells (FIG. 13A) and JIMT-1 cells (FIG. 13B). For such evaluation, 100 μL of HER2/neu expressing target cells (1.0×1⁰⁶ cells/mL) and 100 μL of serially diluted (5- or 10-fold dilutions) test article (bispecific diabody) were added to each well of microtiter assay plate(s), mixed and incubated at RT for 45 min. The cells were washed with FACS Buffer and secondary antibody (anti-human-Fc region-APC) was then added to each well; mixed and incubated at RT for 30 min. Cells were washed and resuspended in 100 μL FACS Buffer and analyzed by flow cytometry (BD LSR Fortessa or FACSCanto 11) for cell event collection. Data analysis were performed via FloJo v10.

[5] = target: T1, HER2/neu on the surface of target cells …; experiment: flow cytometry on N87 cells, anti-hFc APC MFI
Description: as §1

[6] = target: T3, extracellular portion of human HER2 fused to a histidine-containing peptide (human, UniProt P04626 23-652); experiment: SPR (BIACORE), essentially as for Table 8
T3 construct: extracellular domain; also called huHER2; Human HER2/neu
Description: The humanized variants were selected to have improved binding affinity as compared to the parental murine antibody and as described may be further engineered to eliminate sequence liabilities (e.g., isomerization, deamidation sites) as described above. The binding affinity of several combinations of humanized VH and VL domains was examined by BIACORE®. Thus, an extracellular portion of human HER2 fused to a histidine-containing peptide (“huHER2”) was passed over a surface coated with immobilized antibody. Briefly, each test molecule was captured onto an F(ab)₂ goat-anti-human Fc-coated surface and then incubated in the presence of different concentrations (6.25 nM-50 nM) of huHER2. The kinetics of binding were determined via BIACORE® analysis binding (normalized 1:1 Langmuir binding model).
In a separate study, the binding kinetics of the CD137×TA bispecific diabody, DART-B (described above), were determined for binding to human HER2 and cynomolgus monkey HER2, essentially as described above.

[7] = target: T2, CD137 on the surface of cells …; experiment: flow cytometry on CD137-expressing CHO cells (CHO/137), anti-hFc APC MFI
[8] = target: T2, CD137 on the surface of cells …; experiment: flow cytometry on activated pan T cells gated CD4+ (donor D43867), anti-hFc APC MFI
Description: (§2) Three antibodies were selected for further study. For such evaluations, purified pan T-cells (see above) were stimulated with anti-CD3/CD28 beads (cells:beads=1:1) for 72 hours in the presence of IL-2 (100 U/mL). 100 μL of activated T cells (1.0×10⁶ cells/mL) and 100 μL of serially diluted (5- or 10-fold dilutions) test article (antibody or bispecific diabody) was added to each well of microtiter assay plate(s), mixed and incubated at RT for 45 min. The cells were washed with FACS Buffer and secondary antibody (anti-human-Fc region-APC) was then added to each well; mixed and incubated at RT for 30 min. Cells were then washed FACS Buffer and T cell surface marker antibodies (anti-CD4 labeled with V510, and anti-CD8 labeled with FITC) were then added to each well; mixed and incubated at RT for 30 min. Cells were washed and resuspended in 100 μL FACS Buffer and analyzed by flow cytometry (BD LSR Fortessa or FACSCanto 11) for cell event collection. Data analysis were performed via FloJo v10.

[9] = target: T2, CD137 on the surface of cells …; experiment: flow cytometry on activated pan T cells gated CD8+ (donor D43867), anti-hFc APC MFI
Description: as §2

[10] = target: T4, extracellular portion of human CD137 fused to a histidine-containing peptide (human, UniProt Q07011 24-186); experiment: SPR (BIACORE); antibody captured on anti-human Fc; huCD137 25 and 100 nM; 1:1 Langmuir
T4 construct: extracellular domain; also called huCD137; His-tagged soluble human CD137
Description: (§3) Thus, an extracellular portion of human CD137 fused to a histidine-containing peptide (“huCD137”) was passed over a surface coated with immobilized antibody. Briefly, each test molecule was captured onto an F(ab)₂ goat-anti-human Fc-coated surface and then incubated in the presence of different concentrations (25 nM and 100 nM) of huCD137. The kinetics of binding were determined via BIACORE® analysis binding (normalized 1:1 Langmuir binding model).

[11] = target: T4, extracellular portion of human CD137 …; experiment: SPR (BIACORE), against chCD137 MAB-4
Description: as §3

[12] = target: T4, extracellular portion of human CD137 …; experiment: SPR (BIACORE), against chCD137 MAB-3
Description: as §3

[13] = target: T4, extracellular portion of human CD137 …; experiment: Attana Cell A200 QCM; antibody captured by anti-human IgG Fc; soluble human CD137-His; grade relative to (1B.3); row with VL12

T2 sequence (Q07011 24-255, change not shown): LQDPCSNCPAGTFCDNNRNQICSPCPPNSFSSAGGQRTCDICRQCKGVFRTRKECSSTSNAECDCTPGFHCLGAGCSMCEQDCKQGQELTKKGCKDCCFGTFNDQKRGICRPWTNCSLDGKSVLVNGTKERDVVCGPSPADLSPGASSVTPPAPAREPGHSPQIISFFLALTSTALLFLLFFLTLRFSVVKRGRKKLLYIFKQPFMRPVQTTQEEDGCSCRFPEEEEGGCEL

B1: DART-B (bispecific antibody)
chain 1: not shown
chain 2: DIQMTQSPSSLSASVGDRVTITCRPSQDISNYLNWYQQKPDKTVKLLIYYTSRLRSGVPSRFSGSGSGTDFTFTISSLQPEDIATYFCQQGDTLPYTFGQGTKLEIKGGGSGGGGQVQLVQSGAEVKKPGASVKVSCKASGYTFTNYGMNWVRQAPGQGLEWMGWINTNIGEPTYTEEFKGRVTMTRDTSISTAYMELSRLRSDDTAVYYCARDDGYGNRVSYWGQGTLVTVSSGGCGGGKVAACKEKVAALKEKVAALKEKVAALKE
EC50 (read off the curve) [1]: ~0.5 nM
EC50 (read off the curve) [2]: ~0.1 nM
EC50 (read off the curve) [3]: ~0.02 µg/mL
EC50 (read off the curve) [4]: ~0.03 µg/mL
EC50 (read off the curve) [5]: ~0.06 µg/mL
Kd [6]: 0.38 nM
koff [6]: 0.000182 s⁻¹
kon [6]: 480000 M⁻¹ s⁻¹
EC50 (read off the curve) [7]: ~0.01 µg/mL

B2: hCD137 MAB-3 (1E.15) (antibody, V domains shown)
VH: QVQLVQSGAEVKKPGASVKVSCKASGYTFTSYWINWVRQAPGQGLEWIGNIYPSDSYTNYNQKFKDKATITADKSTSTAYMELSSLRSEDTAVYYCTRDYGSAYSMSTWGQGTTVTVSS
VL: DIQMTQSPSSLSASVGDRVTITCQASQDISNYLNWYQQKPDKTVKLLIYYTGRARSGVPSRFSGSGSGTDFTFTISSLQPEDIATYFCQQGDTLPYTFGQGTKLEIK
EC50 (read off the curve) [8]: ~0.006 µg/mL
EC50 (read off the curve) [9]: ~0.005 µg/mL

B3: hCD137 MAB-4 (1.1) (antibody, V domains shown)
VH: QVQLVQSGAEVKKPGASVKVSCKASGYTFTSYWINWVRQAPGQGLEWMGNIYPSDSYTNYDQKFKDRVTMTRDTSTSTVYMELSSLRSEDTAVYYCTKSGEYGKIGYYAMDYWGQGTTVTVSS
VL: DIQMTQSPSSLSASVGDRVTITCRASQDISNYLNWYQQKPDKTVKLLIYYTSRLHSGVPSRFSGSGSGTDYTLTISSLQPEDIATYFCQQGNTLPYTFGQGTKLEIK
notes: also called chCD137 MAB-4 (1.1)
Kd [10]: 16.2 nM
koff [10]: 0.0021 s⁻¹
kon [10]: 130000 M⁻¹ s⁻¹
fold decrease in binding affinity relative to the murine antibodies [11]: ~2 fold

B4: hCD137 MAB-3 (1.2) (antibody, V domains shown)
VH: QVQLVQSGAEVKKPGASVKVSCKASGYTFTSYWINWVKQAPGQGLEWIGNIYPSDSYTNYNQKFKDKATITADKSTSTAYMELSSLRSEDTAVYYCTRDYGSSYSFDYWGQGTTVTVSS
VL: DIQMTQSPSSLSASVGDRVTITCRPSQDISNYLNWYQQKPGGTVKLLIYYTSRLRSGVPSRFSGSGSGTDFTFTISSLQPEDIATYFCQQGDTLPYTFGQGTKLEIK
notes: also called chCD137 MAB-3 (1.2)
Kd [10]: 49 nM
koff [10]: 0.03 s⁻¹
kon [10]: 610000 M⁻¹ s⁻¹
fold decrease in binding affinity relative to the murine antibodies [12]: ~2 fold

B5: hCD137 MAB-3 (1.1) (antibody, V domains shown)
VH: QVQLVQSGAEVKKPGASVKVSCKASGYTFTSYWINWVKQAPGQGLEWIGNIYPSDSYTNYNQKFKDKATITADKSTSTAYMELSSLRSEDTAVYYCTRDYGSSYSFDYWGQGTTVTVSS
VL: DIQMTQSPSSLSASVGDRVTITCRPSQDISNYLNWYQQKPDGTVKLLIYYTSRLRSGVPSRFSGSGSGTDFTFTISSLQPEDIATYFCQQGDTLPYTFGQGTKLEIK
notes: also called chCD137 MAB-3 (1.1)
Kd [10]: 46 nM
koff [10]: 0.031 s⁻¹
kon [10]: 670000 M⁻¹ s⁻¹
fold decrease in binding affinity relative to the murine antibodies [12]: ~2 fold

B6: hCD137 MAB-3 (1G.15) (antibody, V domains shown)
VH: QVQLVQSGAEVKKPGASVKVSCKASGYTFTSYWINWVRQAPGQGLEWAGNIYPSDSYTNYNQKFKDKATITADKSTSTAYMELSSLRSEDTAVYYCTRDYGSAYSMSTWGQGTTVTVSS
VL: DIQMTQSPSSLSASVGDRVTITCQASQDISNYLNWYQQKPDKTVKLLIYYTGRARSGVPSRFSGSGSGTDFTFTISSLQPEDIATYFCQQGDTLPYTFGQGTKLEIK
EC50 (read off the curve) [8]: ~0.01 µg/mL
EC50 (read off the curve) [9]: ~0.008 µg/mL

B7: hCD137 MAB-4 (1.2) (antibody, V domains shown)
VH: QVQLVQSGAEVKKPGASVKVSCKASGYTFTSYWINWVRQAPGQGLEWMGNIYPSDSYTNYDQKFKDRVTMTRDTSTSTVYMELSSLRSEDTAVYYCTKSGEYGKIGYYAMDYWGQGTTVTVSS
VL: DIQMTQSPSSLSASVGDRVTITCRASQDISNYLNWYQQKPDKTVKLLIYYTSRLHSGVPSRFSGSGSGTDYTLTISSLQPEDIATYYCQQGNTLPYTFGQGTKLEIK
notes: also called chCD137 MAB-4 (1.2)
Kd [10]: 13.6 nM
koff [10]: 0.0019 s⁻¹
kon [10]: 140000 M⁻¹ s⁻¹
fold decrease in binding affinity relative to the murine antibodies [11]: ~2 fold

B8: hCD137 MAB-3 VH1B with VL12 (I48A/S52T) (antibody, V domains shown)
VH: QVQLVQSGAEVKKPGASVKVSCKASGYTFTSYWINWVKQAPGQGLEWIGNIYPSDSYTNYNQKFKDKATITADKSTSTAYMELSSLRSEDTAVYYCTRDYGSAYSMSTWGQGTTVTVSS
VL: DIQMTQSPSSLSASVGDRVTITCRPSQDISNYLNWYQQKPDKTVKLLAYYTTRLRSGVPSRFSGSGSGTDFTFTISSLQPEDIATYFCQQGDTLPYTFGQGTKLEIK
binding result [13]: binds

B9: hCD137 MAB-3 (1.3) (antibody, V domains shown)
VH: QVQLVQSGAEVKKPGASVKVSCKASGYTFTSYWINWVKQAPGQGLEWIGNIYPSDSYTNYNQKFKDKATITADKSTSTAYMELSSLRSEDTAVYYCTRDYGSSYSFDYWGQGTTVTVSS
VL: DIQMTQSPSSLSASVGDRVTITCRPSQDISNYLNWYQQKPDKTVKLLIYYTSRLRSGVPSRFSGSGSGTDFTFTISSLQPEDIATYFCQQGDTLPYTFGQGTKLEIK
notes: also called chCD137 MAB-3 (1.3)
Kd [10]: 50 nM
koff [10]: 0.033 s⁻¹
kon [10]: 660000 M⁻¹ s⁻¹
fold decrease in binding affinity relative to the murine antibodies [12]: ~2 fold
